Reference: PMC6319916 (Biochemistry, 2018)

T1: 3-hydroxy-3-methylglutaryl coenzyme A reductase (DaHMGR) (Delftia acidovorans, UniProt A9BQX8)
T1 sequence (A9BQX8 1-429): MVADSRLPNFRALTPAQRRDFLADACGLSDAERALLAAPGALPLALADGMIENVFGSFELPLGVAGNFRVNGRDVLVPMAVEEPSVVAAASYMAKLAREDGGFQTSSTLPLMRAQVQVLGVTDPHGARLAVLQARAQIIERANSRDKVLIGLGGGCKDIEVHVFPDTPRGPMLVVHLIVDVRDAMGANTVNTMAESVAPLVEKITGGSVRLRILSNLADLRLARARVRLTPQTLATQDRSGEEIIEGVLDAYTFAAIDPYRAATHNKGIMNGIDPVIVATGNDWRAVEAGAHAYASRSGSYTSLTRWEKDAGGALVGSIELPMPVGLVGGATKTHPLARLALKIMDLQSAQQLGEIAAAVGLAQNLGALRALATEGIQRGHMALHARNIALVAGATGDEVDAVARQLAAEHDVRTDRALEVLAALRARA

B1: 3-hydroxy-3-methylglutaryl coenzyme A reductase (DaHMGR) (Delftia acidovorans SPH-1) (protein)
chain: T1 sequence (A9BQX8 1-429)

Assays:
[1] = target: T1, 3-hydroxy-3-methylglutaryl coenzyme A reductase (DaHMGR); assay: X-ray crystal structure; type: binding
purified protein = substrate: CC(C)(COP(=O)(O)OP(=O)(O)OC[C@H]1O[C@@H](n2cnc3c(N)ncnc32)[C@H](O)[C@@H]1OP(=O)(O)O)[C@@H](O)C(=O)NCCC(=O)NCCSC(=O)C[C@@](C)(O)CC(=O)O; assay: purified protein; settings: NADH

Molecule	X-ray crystal structure (1.49 Å) [1]	Km (purified protein) [µM]	kcat (purified protein) [s⁻¹]	kcat/Km (purified protein) [M⁻¹ s⁻¹]
C[C@@](O)(CCO)CC(=O)O [mevalonate]	in the mevalonate-bound DaHMGR structure, positive difference maps showed density in the active site, representing mevalonate binding			
B1		7.34 ± 0.71	22.3	3.04e+06
